We go through five substances from patent US20140322269A1.

For experiment [1], the target named is c1d1_v2 displayed on yeast (Saccharomyces cerevisiae). Description: yeast surface display; Fab titration, flow cytometry. (In general: Flow cytometry measures light scatter and fluorescence of single cells or particles in a stream.)
The target of experiment [2] is c1d1_N386D displayed on yeast (Saccharomyces cerevisiae). The description is as above.
In experiment [3] the target is c1d1_b10disulf displayed on yeast (Saccharomyces cerevisiae). The description is as above.
Experiment [4] deals with c1d1_N386D. As to the kind of experiment: SPR and ITC.
The target of another experiment is eOD_L260F. Description: method not given.
Another experiment addresses eOD_L260F_N276D. Description: method not given.
The next experiment deals with eOD_T257S_S375W. As to the kind of experiment: method not given.
For the next experiment, the target named is eOD_N276D. As to the kind of experiment: method not given.
The target of a further experiment is eOD_T257S_L260F_S375W. As to the kind of experiment: method not given.
The next experiment addresses c1d1_b10disulf. As to the kind of experiment: ITC.
For experiment [5], the target named is c1d1_N386D. Description: ITC. On the technique in general: ITC needs no label: the signal is the heat of the interaction.
Experiment [6] addresses c1d1_N386D. As to the kind of experiment: SPR, kinetics fitting. A general note: Surface plasmon resonance follows binding to a sensor surface in real time, without labels.
The target in experiment [7] is wild-type core GP120 (soluble, mammalian-expressed) (HIV, HxB2 strain) (UniProt P04578). As to the kind of experiment: SPR; IgG captured by anti-human IgG, gp120 as analyte.
Experiment [8] has the same target. Description: method not restated; rounded form of 3.9 nM of Table 1.
A further experiment has as its target c2d1_b10disulf. Description: SPR; IgG captured, OD variant as analyte.
For experiment [9], the target named is ODml(N386) (Human immunodeficiency virus type 1 group M subtype B (isolate HXB2) (HIV-1)) (UniProt P04578). As to the kind of experiment: SPR; IgG captured, OD variant as analyte.
Experiment [10] deals with c1d1_N386D. As to the kind of experiment: method not restated.
Experiment [11] deals with eOD_N276D_N463D. Description: method not given; protein from 293 cells.
For experiment [12], the target named is c1d1_N386D. Description: SPR.
Experiment [13] deals with eOD_N276D_N463D. Description: method not given.

The Kd is a measure of binding affinity in units of concentration. Lower therefore signals a tighter complex.

For VRC01 Fab, the Kd in [1], in experiment [2] and in [3] was more than 50 nM each time.

VRC01 IgG (mature VRC01) (antibody) showed a fold worse KD than core gp120 with c1d1_N386D [4] of 35 to 50 fold. In addition, the Kd came to 14.3 nM with eOD_L260F; 11.9 nM with eOD_L260F_N276D; 90 nM with eOD_T257S_S375W; 27.8 nM in the experiment with eOD_N276D; 8.6 nM in the experiment with eOD_T257S_L260F_S375W; 100 nM with c1d1_b10disulf. Further, the Kd with c1d1_N386D [5] turned out to be 200 nM; in the experiment with c1d1_N386D [6] it was 139 nM; in experiment [7] it was 3.9 nM; in experiment [8] it was 4 nM; with c2d1_b10disulf, 289 nM; in [9] it was 298 nM. Further, the dissociation constant (Kd) with c1d1_N386D [10] was found to be 80 nM; in the experiment with eOD_N276D_N463D [11], 4 nM. In the experiment with c1d1_b10disulf, this substance yielded a fold improvement of KD over c1d1 N386D of 2 fold. Besides, the fold weaker affinity than core gp120 with c1d1_N386D [10] is more than 10 fold.

Consider b12 Fab, for which the Kd in [1] was 11 nM; in experiment [2], 21 nM.

For b12 IgG (antibody), the fold improvement of KD over OD (386) with c1d1_N386D [12] is 28 fold.

As to germline VRC01 IgG (antibody), the Kd in the experiment with eOD_L260F was more than 500000 nM; in the experiment with eOD_L260F_N276D, 149000 nM; with eOD_N276D, 640000 nM; with eOD_N276D_N463D [13] it was 380000 nM.
